The values below come from patent publication US20200386770A1 (YUROGEN BIOSYSTEMS, published 2020).

Experiment [1] deals with T1, human PD-L2 (human, UniProt Q9BQ51 20-220, limits assumed).
T1 construct: Coated on plates in the direct ELISA; construct not described; also called programmed death ligand-2
T1 sequence (looked up): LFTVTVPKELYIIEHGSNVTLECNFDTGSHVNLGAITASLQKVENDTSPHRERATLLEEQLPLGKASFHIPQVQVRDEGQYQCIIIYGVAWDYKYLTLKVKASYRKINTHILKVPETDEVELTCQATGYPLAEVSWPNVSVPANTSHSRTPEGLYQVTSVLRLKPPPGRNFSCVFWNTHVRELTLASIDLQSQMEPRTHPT
The experiment can be described thus: direct ELISA, human PD-L2 coated. The method, then: The procedures of the direct ELISA are described in the method below. […] The negative control was conducted using the same procedures as the anti-human PD-L1 antibodies, except that a blank buffer is used instead of the anti-human PD-L1 antibodies. The blank buffer is the buffer for diluting the anti-human PD-L1 antibodies. […] Thereby, 2C5, 3B8, 8C6, 10H6, 11G7, and 12H2 can eliminate the cross-reactivity of human PD-L2.
(§1) 3. Direct ELISA with rabbit monoclonal antibodies against human PD-L1 or PD-L2. Human PD-L1 and PD-L2 were coated on high binding ELISA plates at 4° C. overnight in 1×PBS, pH7.4. Coated plates were washed with Wash Buffer (1×PBS supplemented with 0.5% (V/V) Tween-20), and blocked with Blocking Buffer (1×PBS supplemented with 5% (W/V) skim milk). After blocking, plates were incubated with rabbit anti-PD-L1 monoclonal antibodies for 1 hour at room temperature, followed by washing and incubation with goat anti-rabbit IgG antibody conjugated with HRP. After a final wash, plated were developed using colorimetric reaction catalyzed by HRP to see if a monoclonal antibody can or cannot bind to PD-L1 and PD-L2.

Experiment [2] concerns the target T2, human PD-L1 (human, UniProt Q9NZQ7 19-238, limits assumed).
T2 construct: also called programmed death ligand-1; CD274
The experiment can be described thus: sandwich ELISA (8C6 capture, 2C5 detection) compared with direct ELISA. The method, then: As compared to the direct ELISA with 8C6 shown in FIG. […] The sandwich ELISA enhances the sensitivity of human PD-L1 to 2C5, as compared to the direct ELISA.
as §1
5. Sandwich ELISA with rabbit monoclonal antibodies against human PD-L1. Capture antibodies were coated on high binding ELISA plates at 4° C. overnight in bicarbonate buffer. Coated plates were washed with Wash Buffer (1×PBS supplemented with 0.5% (V/V) Tween-20), and blocked with Blocking Buffer (1×PBS supplemented with 5% (W/V) skim milk). […]

In experiment [3] the target is T2, human PD-L1. The experiment can be described thus: direct ELISA, 10 ng/ml human PD-L1. The method, then:
as §1

T2 sequence (Q9NZQ7 19-238 limits assumed): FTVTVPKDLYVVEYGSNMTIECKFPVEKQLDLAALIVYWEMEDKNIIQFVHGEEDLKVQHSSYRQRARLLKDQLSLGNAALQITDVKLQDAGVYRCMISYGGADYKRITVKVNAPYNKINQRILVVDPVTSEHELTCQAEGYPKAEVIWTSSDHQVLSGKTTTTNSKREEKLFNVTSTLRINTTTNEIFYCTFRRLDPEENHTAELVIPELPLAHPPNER

B1: rabbit anti-human PD-L1 mAb 8C6 (antibody, V domains shown)
VH: QSVEESGGRLVTPGTPLTLTCTASGFDISRHHMCWVRQAPGEGLEYIGFINPPGSAYYANWAKGRFTISRTSTTVALEMTSLTTEDTATYFCARWRFDDYGDLWGQGTLVTVSS
VL: AYDMTQTPASVEVAVGGTVTIKCQASESIASYLAWYQQKPGQPPKLLIYKASTLASGVSSRFRGSGSGTEFTLTISGVECADAATYYCQQGYSATNIDNAFGGGTEVVVKG
notes: Recombinant rabbit IgG; Full heavy chain assembled from the Fab heavy chain entry followed by the Fc entry; Biotinylated when used as detection antibody in the sandwich ELISA
On to B1, for which the binding result in experiment [1] is listed as “no binding (tested: concentrations up to 1000 ng/ml)”.

B2: rabbit anti-human PD-L1 mAb 2C5 (antibody, V domains shown)
VH: QSVEESGGRLVTPGTPLTLTCTVSGFSLNNDNVGWVRQAPGKGLEWVGLIDILGSSYYASWAKGRFTISKTSNTVDLKITSPTIEDTATYFCAREGDGSFDPWGPGTLVTVSS
VL: AQVLTQTPSPVSAAVGGTVTINCQASQNVYNKKNLAWYQQKLGQPPKLLIYKASTLASGVPSRFSGSGSGTQFTLTISDLECDDAATYYCQGDYIGSRAFGGGTEVVVKG
notes: as for B1
Regarding B2, the binding result in experiment [1] was “no binding (tested: concentrations up to 1000 ng/ml)”. Further, in experiment [2], the “fold sensitivity, sandwich ELISA against direct ELISA” value was at least 2 fold.

B3: rabbit anti-human PD-L1 mAb 12H2 (antibody, V domains shown)
VH: QEQLVESGGGLVQPEGSLTLTCTASGFSFSSSYYMCWVRQAPGKGLEWIACIWTSNGGRTYYANWAKGRFTISETSSTTVTLQMTSLTAADTATYFCARDDDTGSGYYNLWGPGTLVTVSS
VL: QIVMTQTASPVSAAVGGTVTINCQASESISSWLAWYQQKPGQPPKLLIYKASTLASGVPSRFKGSGSGTEFTLTISDLECADAATYYCQHGYYFGSVANTFGGGTEVVVKG
notes: Recombinant rabbit IgG; Full heavy chain assembled from the Fab heavy chain entry followed by the Fc entry
On to B3, for which the binding result in experiment [1] is on record as “no binding (tested: concentrations up to 1000 ng/ml)”.

B4: rabbit anti-human PD-L1 mAb 3B8 (antibody, V domains shown)
VH: QSLEESGGDLVKPGASRTLTCTASGFSFSNNAYMCWVRQAPGKGLELIACIYSRYGNTHYASWAKGRFTISKTSSTTVTLQMTSLTAADTATYFCARGASGSSDYSFYFNLWGPGTLVTVSS
VL: AYDMTQTPASVEVAVGGTVTIKCQASQSISSWLAWYQQKPGQPPKLLIYDAYDLASGVPSRFKGSGSGTQFTLTISGVECTDAATYYCQQGYSSENIDNSFGGGTDVVVKG
notes: as for B1
B4: the binding result in experiment [1] was “no binding (tested: concentrations up to 1000 ng/ml)”.

B5: rabbit anti-human PD-L1 mAb 11G7 (antibody, V domains shown)
VH: QSVEESGGRLVTPGTPLTLTCTVSGIDLSSYDMTWVRQAPGKGLEYIGYISYFDKTYYATWAKGRFTISKTSTTVDLKMTSLTTEDTATYFCVRDRPDGITANLWGQGTLVTVSS
VL: AQLPTQTASPVSAAVGGTVTINCQSSHNVYSDNRLSWYQQKPGQPPKLLIYWASILASGVPSRFKGSGSGTQFTLTITDLECDDAATYYCAGGYSGNIYTFGGGTEVVVKG
notes: as for B3
Regarding B5, the “OD450 at 10 ng/ml” value in experiment [3] is about 0.1 OD450. The binding result in experiment [1] is listed as “no binding (tested: concentrations up to 1000 ng/ml)”.

B6: rabbit anti-human PD-L1 mAb 10H6 (antibody, V domains shown)
VH: QEQLVESGGGLVQPEGSLTLTCTASGFSFSSIYYLCWVRQAPGKGLEWIACIYGGNSDNTWYASWAKGRFTISKTSSTTVTLQMTSLTAADTATYFCARGYDIYGYAINLWGPGTLVTVSS
VL: DVVMTQTPASVEAAVGGTVTIKCQASQSIGGYLAWYQQKPGQPPKLLIYRASTLESGVASRFKGSGSGTEFTLTISDLECADAATYYCQCTYDSSNSRIYPNVFGGGTEVVVKG
notes: as for B3
With B6, in experiment [1], the binding result is reported as “no binding (tested: concentrations up to 1000 ng/ml)”.
